Laboratory results taken from patent CN108752475A (BEIJING WISDOMAB BIOTECHNOLOGY CO LTD, dated 2018).
Like-named read-outs stand apart in the source and are kept apart here.

T1: 小鼠CD38胞外区 (mCD38) with C-terminal His tag, mCD38-his (mouse (mus musculus), UniProt P56528 45-304)
T1 construct: Recombinant, made in HEK293 cells; coated on the ELISA plate; not shown: His tag added at the C-terminus
T1 sequence: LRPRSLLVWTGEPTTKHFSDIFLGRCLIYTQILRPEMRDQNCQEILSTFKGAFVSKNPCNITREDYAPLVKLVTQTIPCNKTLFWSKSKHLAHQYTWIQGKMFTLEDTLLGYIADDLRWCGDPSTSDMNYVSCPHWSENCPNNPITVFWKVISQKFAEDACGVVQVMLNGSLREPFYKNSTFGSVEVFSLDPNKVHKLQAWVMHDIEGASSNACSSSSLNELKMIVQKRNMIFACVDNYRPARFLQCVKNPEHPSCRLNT


Assays:
[1] = target: T2, 食蟹猴CD38胞外区 (mfCD38) with C-terminal His tag, mfCD38-his (cynomolgus monkey (Macaca fascicularis), UniProt Q5VAN0 44-301); assay: SPR (Biacore), antibody captured by anti-human Fc on CM5, mfCD38 as analyte
T2 construct: not shown: His tag added at the C-terminus
T2 sequence (Q5VAN0 44-301): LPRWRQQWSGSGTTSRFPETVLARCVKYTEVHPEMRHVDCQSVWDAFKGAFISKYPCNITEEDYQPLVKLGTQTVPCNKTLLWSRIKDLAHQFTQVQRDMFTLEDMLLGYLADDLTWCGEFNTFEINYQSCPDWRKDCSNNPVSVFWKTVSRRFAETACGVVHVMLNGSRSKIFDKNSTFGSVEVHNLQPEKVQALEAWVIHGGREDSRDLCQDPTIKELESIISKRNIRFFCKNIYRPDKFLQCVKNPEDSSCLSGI

[2] = target: T3, 人CD38胞外区 (hCD38) with C-terminal His tag, hCD38-his (human (homo sapiens), UniProt P28907 43-300); assay: SPR (Biacore), antibody captured by anti-human Fc on CM5, hCD38 as analyte, 25 °C
T3 construct: Recombinant, made in HEK293 cells; not shown: His tag added at the C-terminus

[3] = target: T1, 小鼠CD38胞外区 (mCD38) with C-terminal His …; assay: ELISA, mCD38-his coated at 1.5 μg/ml, HRP anti-human IgG detection
[4] = target: T3, 人CD38胞外区 (hCD38) with C-terminal His …; assay: SPR (Biacore), antibody captured by anti-human Fc on CM5, hCD38 as analyte, 25 °C; remark: listed apart in the source

Binder | Kd [1] [nM] | Kd [2] [nM] | binding result [3] | Kd [4] [nM]
S5B8VH-h1+S5B8VK-h1 (antibody, human IgG1, V domains shown, Humanized, expressed as a human IgG1 whole antibody; also called S5B8人源化分子) VH: QVQLVQSGAEVKKPGASVKVSCKASGYAFTNSWMHWVRQAPGQRLEWMGEIHPQSGRTNYNEKFKGRVTITRDTSASTAYMELSSLRSEDTAVYYCARDLLQFGNQYYYAMDYWGQGTLVTVSS VL: DVVMTQSPLSLPVTLGQPASISCRSSQSLVHSNGNTYLHWFQQRPGQSPRRLIYKVSNRFSGVPDRFSGSGSGTDFTLKISRVEAEDVGVYYCSQSTHVPLTFGQGTKLEIK | 13.6 | 0.371 | – | –
S5B8VH-h2+S5B8VK-h1 (antibody, human IgG1, V domains shown, Humanized, expressed as a human IgG1 whole antibody; also called S5B8人源化分子) VH: QVQLVQSGAEVKKPGASVKVSCKASGYAFTNSWMHWVRQAPGQGLEWMGEIHPQSGRTNYNEKFKGRVTMTRDTSTSTVYMELSSLRSEDTAVYYCARDLLQFGNQYYYAMDYWGQGTLVTVSS VL: DVVMTQSPLSLPVTLGQPASISCRSSQSLVHSNGNTYLHWFQQRPGQSPRRLIYKVSNRFSGVPDRFSGSGSGTDFTLKISRVEAEDVGVYYCSQSTHVPLTFGQGTKLEIK | 9.66 | 0.406 | – | –
S5B8VH-h1+S5B8VK-h2 (antibody, human IgG1, V domains shown, Humanized, expressed as a human IgG1 whole antibody; also called S5B8人源化分子) VH: QVQLVQSGAEVKKPGASVKVSCKASGYAFTNSWMHWVRQAPGQRLEWMGEIHPQSGRTNYNEKFKGRVTITRDTSASTAYMELSSLRSEDTAVYYCARDLLQFGNQYYYAMDYWGQGTLVTVSS VL: DIVMTQTPLSLPVTPGEPASISCRSSQSLVHSNGNTYLHWYLQKPGQSPQLLIYKVSNRFSGVPDRFSGSGSGTDFTLKISRVEAEDVGVYYCSQSTHVPLTFGQGTKLEIK | 5.15 | 0.0894 | – | –
S5E3 (mouse-human chimeric antibody, human IgG1) (antibody, Tested as a human IgG1-kappa/lambda chimeric antibody built from the variable domains of this scFv) scFv: QVQLQQSGPEVVKPGASVKMSCKATGYTSRSYWIEWVKQRPGHGLEWIGEILPGSGSTNYNEKFKGKATFTADTSSNTAYMQLSSLTSEDSAVYYCARWDGNYGDFVLDYWGQGTSVTVSSGGGGSGGGGSGGGGSDIQMTQSPSSMYASLGERVTITCKASQDINSYLSWFQQKPGKSPKTLIYRANRLVDGVPSRFSGSGSGQDYFLTISSLEYEDMGIYYCLQYDEFPYTFGGGTKLEMK | – | – | no binding | –
S5B7 (mouse-human chimeric antibody, human IgG1) (antibody, Tested as a human IgG1-kappa/lambda chimeric antibody built from the variable domains of this scFv) scFv: QVQLQQPGSVLVRPGASVKLSCKATGYTFSSYWIEWVKQRPGHGLEWIGDILPGTGTTNYNEKFKGKATFTADTSSNTAYMQFSSLTSEDSAVYYCASSYGNYVWGQGTSLTVSSGGGGSGGGGSGGGGSDVVMTQSPASLAVSLGQRATISCKASQSVDYDGDSYMNWYQQKPGQPPRLLIYAASNLESGIPARFSGSGSGTDFTLNIHPVEEEDAATYYCQQGNGAPRTFGGGTKLEIK | – | – | no binding | –
S5D3 (mouse-human chimeric antibody, human IgG1) (antibody, Tested as a human IgG1-kappa/lambda chimeric antibody built from the variable domains of this scFv) scFv: QVQLQQSGAELMKPGASVKISCKATGYTSSSYWIEWVKQRPGHGLEWIGEILPGSGSTNYNEKFKGKATFTADTSSNTAYMQLSSLTSEDSAVYYCARLYDNSYFDYWGQGTSLTVSSGGGGSGGGGSGGGGSDIVMTQSPSSMYASLGERVTITCKASQDINSYLSWFQQKPGKSPKTLIYRANRLVDGVPSRFSGSGSGQDYSLTISSLEYEDMGIYYCLQYDEFPYTFGGGTKLEMK | – | – | no binding | –
S5A10-h1 (antibody, human IgG1, V domains shown, Humanized, expressed as a human IgG1 whole antibody; also called S5A10VH-h1+S5A10VK-h1; S5A10人源化分子) VH: QVQLVQSGAEVKKPGSSVKVSCKASDYPFISYTIHWVRQAPGQGLEWMGYINPSNGYTNYNQKFKDRVTITADKSTSTAYMELSSLRSEDTAVYYCARKYGNFYAMDYWGQGTLVTVSS VL: DIQMTQSPSSLSASVGDRVTITCRASENIYSYLAWYQQKPGKAPKLLIYNAKTLAEGVPSRFSGSGSGTDFTLTISSLQPEDFATYYCQHHYGTPYTFGQGTKLEIK | – | – | – | 2.73
S5B8 (mouse-human chimeric antibody, human IgG1) (antibody, V domains shown, Tested as a recombinant human IgG1-kappa/lambda mouse-human chimeric antibody; also called 鼠单抗S5B8) VH: QVQLQQSGSVLVRPGVSVKLSCKASGYAFTNSWMHWAKQRPGQGLEWIGEIHPQSGRTNYNEKFKGKATLTVDTSSSTAYVDFSSLTSEDSAVYYCARDLLQFGNQYYYAMDYWGQGTSVTVSS VL: DVVMTQTPLSLPVSLGDQASISCRSSQSLVHSNGNTYLHWYLQKPGQSPKLLIYKVSNRFSGVPDRFSGSGSGTDFTLKISRVEAEDLGVYFCSQSTHVPLTFGAGTKLEMK | 3.14 | 0.178 | no binding | –
S5B8VH-h2+S5B8VK-h2 (antibody, human IgG1, V domains shown, Humanized, expressed as a human IgG1 whole antibody; also called S5B8人源化分子) VH: QVQLVQSGAEVKKPGASVKVSCKASGYAFTNSWMHWVRQAPGQGLEWMGEIHPQSGRTNYNEKFKGRVTMTRDTSTSTVYMELSSLRSEDTAVYYCARDLLQFGNQYYYAMDYWGQGTLVTVSS VL: DIVMTQTPLSLPVTPGEPASISCRSSQSLVHSNGNTYLHWYLQKPGQSPQLLIYKVSNRFSGVPDRFSGSGSGTDFTLKISRVEAEDVGVYYCSQSTHVPLTFGQGTKLEIK | 3.48 | 0.0486 | – | –
S5B5 (mouse-human chimeric antibody, human IgG1) (antibody, Tested as a human IgG1-kappa/lambda chimeric antibody built from the variable domains of this scFv) scFv: QVKLQQFGAELVKPGASVKISCKATGYTFSSYWIGWVKQRPGHGLEWIGEILPGTGSTNYNEKFKDKATFTADTSPNTAYMQLSSLTSEDSAVYYCARWDGNYGDYALDYWGQGTSVTVSAGGGGSGGGGSGGGGSDIVMTQSPSSMYASLGERVTITCKASQDINSYLSWFQQKPGKSPKTLIYRANRLVDGVPSRFSGSGSGQDYSLTISSLEYEDMGIYYCLQYDEFPYTFGGGTKLEIK | – | – | no binding | –
S5B4 (mouse-human chimeric antibody, human IgG1) (antibody, Tested as a human IgG1-kappa/lambda chimeric antibody built from the variable domains of this scFv) scFv: QVKLQQSGAELMKPGASVKISCKATGYTFSSYWIGWLKQRPGHGLEWVGELLPGSGSTNYNEKFKGKATFTADTSSNTAYMQLSSLTSEDSAVYYCARWDGNYGDYTLDYWGQGTSVTVSSGGGGSGGGGSGGGGSDIVMTQSPSSMYASLGERVTITCKASQDINSYLSWFQQKPGKSPKTLIYRANRLVDGVPSRFSGSGSGQDYSLTISSLEYEDMGIYYCLQYDEFPYTFGGGTKLEMK | – | – | no binding | –
